In paper PMC5414047:

Columns and labels:
[1] = biological target: TβRII (TGF-β type II receptor) (UniProt P37173); test: Flag-FAF1 co-IP, immunoblot; conditions: reference: wild type; sites S582
[2] = biological target: VCP (valosin-containing protein) (UniProt P55072); test: Flag-FAF1 co-IP, immunoblot; conditions: reference: wild type; sites S582

binding against the reference [1]: stronger
binding against the reference [2]: stronger
Substance: FAF1 (FAS-associated factor 1) (from UniProt Q9UNN5) S582A
